Data on two molecules can be found in paper PMC6599011, “Transcription factor YcjW controls the emergency H2S production in E. coli”.

Conditions in all cases: protein: recombinant; tags: His-SUMO (pET28-SUMO), cleaved with SUMO protease; chain copies: 2; label: 32P 5' end (T4 PNK); blunt
For one data set, the target named is T1, YcjW S258N (Escherichia coli K-12 MG1655, UniProt P77615 1-332, S258N).
T1 sequence: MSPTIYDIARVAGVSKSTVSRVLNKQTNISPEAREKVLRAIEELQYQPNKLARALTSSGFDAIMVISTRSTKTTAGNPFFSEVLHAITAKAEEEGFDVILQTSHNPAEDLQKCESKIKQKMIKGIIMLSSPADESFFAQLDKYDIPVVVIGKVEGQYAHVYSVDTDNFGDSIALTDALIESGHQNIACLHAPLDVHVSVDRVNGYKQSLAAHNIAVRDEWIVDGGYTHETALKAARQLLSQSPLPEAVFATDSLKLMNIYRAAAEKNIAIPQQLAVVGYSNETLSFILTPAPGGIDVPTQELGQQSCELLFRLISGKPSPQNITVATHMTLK
The experiment in a line: EMSA; shift from DNA:protein 1:0.5; no free probe at 1:2; EMSA with 32P-labelled dsDNA; binding buffer as in cited ref 14, not given; sugars preincubated with protein 20 min at room temperature; protein stored in 20 mM Tris-Cl pH 8.0, 50 mM NaCl, 1 mM DTT. (Mobility shift assays separate free from complexed probe on a gel.)

In data set [1] the target is T2, YcjW (Escherichia coli K-12 MG1655, UniProt P77615 1-332).
T2 sequence: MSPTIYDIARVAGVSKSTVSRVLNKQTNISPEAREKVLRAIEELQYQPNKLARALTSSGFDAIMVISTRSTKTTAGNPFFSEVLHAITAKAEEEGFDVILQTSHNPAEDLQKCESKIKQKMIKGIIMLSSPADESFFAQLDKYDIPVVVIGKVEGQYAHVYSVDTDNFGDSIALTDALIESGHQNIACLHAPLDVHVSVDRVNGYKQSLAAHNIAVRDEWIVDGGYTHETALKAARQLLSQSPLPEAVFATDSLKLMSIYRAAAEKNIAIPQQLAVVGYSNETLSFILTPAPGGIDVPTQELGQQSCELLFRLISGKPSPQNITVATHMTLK
The data set is described as above.

The target in data set [2] is T2, YcjW. Kind of data set: EMSA; shift from about 1:0.5 DNA:protein, increasing with protein; EMSA with 32P-labelled dsDNA; binding buffer as in cited ref 14, not given; sugars preincubated with protein 20 min at room temperature; protein stored in 20 mM Tris-Cl pH 8.0, 50 mM NaCl, 1 mM DTT.

B1: narP EMSA probe (LL62/LL63) (dsDNA)
DNA 1: GGTAACATTCACGCGCCTGGTAGCGTTACCAACGCTACGCTCAAACATAATGATTC
DNA 2: GAATCATTATGTTTGAGCGTAGCGTTGGTAACGCTACCAGGCGCGTGAATGTTACC
With B1, the binding result in the data set with YcjW S258N and with YcjW [1] was “binds” throughout.

B2: ycjM EMSA probe (LL58/LL59) (dsDNA)
DNA 1: GAGTAGTCTCTCGTTTCATGGGACCGCTACCACGGAAAGGCAACATGAAAC
DNA 2: GTTTCATGTTGCCTTTCCGTGGTAGCGGTCCCATGAAACGAGAGACTACTC
For B2, the binding result with YcjW [2] is “binds”.
